# B1: MMP2 (protein)
# chain: YNFFPRKPKWDKNQITYRIIGYTPDLDPETVDDAFARAFQVWSDVTPLRFSRIHDGEADIMINFGRWEHGDGYPFDGKDGLLAHAFAPGTGVGGDSHFDDDELWTLGEGQVVRVKYGNADGEYCKFPFLFNGKEYNSCTDTGRSDGFLWCSTTYNFEKDGKYGFCPHEALFTMGGNAEGQPCKFPFRFQGTSYDSCTTEGRTDGYRWCGTTEDYDRDKKYGFCPETAMSTVGGNSEGAPCVFPFTFLGNKYESCTSAGRSDGKMWCATTANYDDDRKWGFCPDQGYSLFLVAAHEFGHAMGLEHSQDPGALMAPIYTYTKNFRLSQDDIKGIQELYGASPDIDLGTGPTPTLGPVTPEICKQDIVFDGIAQIRGEIFFFKDRFIWRTVTPRDKPMGPLLVATFWPELPEKIDAVYEAPQEEKAVFFAGNEYWIYSASTLERGYPKPLTSLGLPPDVQRVDAAFNWSKNKKTYIFAGDKFWRYNEVKKKMDPGFPKLIADAWNAIPDNLDAVVDLQGGGHSYFFKGAYYLKLENQSLKSVKFGSIKSDWLGC
# B2: ST14/Matriptase (protein)
# chain: GSDEKDCDCGLRSFTRQARVVGGTDADEGEWPWQVSLHALGQGHICGASLISPNWLVSAAHCYIDDRGFRYSDPTQWTAFLGLHDQSQRSAPGVQERRLKRIISHPFFNDFTFDYDIALLELEKPAEYSSMVRPICLPDASHVFPAGKAIWVTGWGHTQYGGTGALILQKGEIRVINQTTCENLLPQQITPRMMCVGFLSGGVDSCQGDSGGPLSSVEADGRIFQAGVVSWGDGCAQRNKPGVYTRLPLFRDWIKENTGV
# B3: Legumain (protein)
# chain: VPIDDPEDGGKHWVVIVAGSNGWYNYRHQADACHAYQIIHRNGIPDEQIVVMMYDDIAYSEDNPTPGIVINRPNGTDVYQGVPKDYTGEDVTPQNFLAVLRGDAEAVKGIGSGKVLKSGPQDHVFIYFTDHGSTGILVFPNEDLHVKDLNETIHYMYKHKMYRKMVFYIEACESGSMMNHLPDNINVYATTAANPRESSYACYYDEKRSTYLGDWYSVNWMEDSDVEDLTKETLHKQYHLVKSHTNTSHVMQYGNKTISTMKVMQFQGMKRKASSPVPLPPVTHLDLTPSPDVPLTIMKRKLMNTN
# B4: MMP7 (protein)
# chain: YSLFPNSPKWTSKVVTYRIVSYTRDLPHITVDRLVSKALNMWGKEIPLHFRKVVWGTADIMIGFARGAHGDSYPFDGPGNTLAHAFAPGTGLGGDAHFDEDERWTDGSSLGINFLYAATHELGHSLGMGHSSDPNAVMYPTYGNGDPQNFKLSQDDIKGIQKLYGKRSNSRKK
# Tests used:
# [1] = biological target: 818-P1
# [2] = biological target: 818-C1 MB
# [3] = biological target: 818-C1MA
Protein,unmasking (protease cleavage) rate [1],unmasking (protease cleavage) rate [2],unmasking (protease cleavage) rate [3]
B1,MMP2: 818-P1>818-C1MA>818-C1 MB,MMP2: 818-P1>818-C1MA>818-C1 MB,MMP2: 818-P1>818-C1MA>818-C1 MB
B2,ST14 unmaking was characterized by 818-C1MA>818-P1>818-C1 MB,ST14 unmaking was characterized by 818-C1MA>818-P1>818-C1 MB,ST14 unmaking was characterized by 818-C1MA>818-P1>818-C1 MB
B3,Legumain demonstrated minimal unmasking differences,Legumain demonstrated minimal unmasking differences,Legumain demonstrated minimal unmasking differences
B4,MMP1: 818-P1>818-C1MA=818-C1 MB,MMP1: 818-P1>818-C1MA=818-C1 MB,MMP1: 818-P1>818-C1MA=818-C1 MB

# Source: patent publication US20230324389
